Reference: the RNAGym collection of RNA variant scans (doi:10.7554/elife.80360)

B1: HDV Ribozyme (parent)
chain: GGCCGGCAUGGUCCCAGCCUCCUCGCUGGCGCCGGCUGGGCAACAUUCCGAGGGGACCGUCCCCUCGGUAAUGGCGAAUGGGACCCA

Variants of: B1
Experiment: self-cleavage, relative activity (ratio to wild type); higher = more cleavage; co-transcriptional

| Variant | self-cleavage |
| --- | --- |
| U65A A78U | 0.396 |
| G29A C57A | 0.282 |
| G29A G38U | 0.113 |
| C26U U69A | 1.11 |
| C24A C30G | 0.089 |
| G76U G82C | 0.277 |
| C62G G81U | 0.133 |
| G40U G52U | 0.576 |
| C26U A71U | 0.941 |
| U69G A71U | 0.974 |
| C24A C85G | 0.69 |
| G54C U69C | 0.99 |
| C33U C48U | 0.847 |
| C33U C84A | 0.65 |
| C7U U20A | 0.0594 |
| C36G G40U | 0.108 |
| A43U G82U | 0.0923 |
| G35A A45G | 0.443 |
| U69C U79C | 0.404 |
| C41A C44A | 0.404 |
| C13U A70C | 0.453 |
| C4G C62G | 0.123 |
| U27C A45C | 0.237 |
| G50C G59U | 0.932 |

| Variant | self-cleavage |
| --- | --- |
| U23G C61A | 0.743 |
| C44A U60C | 0.831 |
| G73A C86G | 0.609 |
| G25A C66U | 0.338 |
| U60C G68C | 0.755 |
| G40C C62G | 0 |
| C14U G25U | 0.59 |
| U27G A87U | 0.763 |
| G59C C61A | 0.969 |
| C86U A87G | 0.942 |
| C49A G76A | 0.991 |
| G54A G82A | 0.208 |
| C36U G67C | 0.831 |
| C18G G40U | 0.0489 |
| G17U C49U | 0.356 |
| U60G C85U | 1.15 |
| G1U G50A | 0.475 |
| G11U U72A | 0.287 |
| C18U C22A | 0.27 |
| G11A A77U | 0.109 |
| C64U G73C | 0.601 |
| C22U G38C | 0.122 |
| C49U A78G | 0.692 |
| G29U G39A | 0 |

| Variant | self-cleavage |
| --- | --- |
| C15U C63A | 1.03 |
| G10A C19A | 0.0489 |
| G25C G34U | 0 |
| U27C G39A | 0.175 |
| C44A U46C | 0.767 |
| G54U C75A | 0.241 |
| C13A C22G | 0.026 |
| C13A C22A | 0.0287 |
| U37C A45C | 0.539 |
| G2A C14G | 0.0773 |
| A8G A51C | 0.962 |
| C63U A87G | 0.927 |
| G38C G39U | 0.0396 |
| U9G C32A | 0.277 |
| A42G G68A | 0.441 |
| C48U C64G | 0.721 |
| C24A U79G | 0.312 |
| C62U A83G | 0.818 |
| U46G C64U | 0.776 |
| U20G C30U | 0 |
| U23C G82U | 0.312 |
| C32A C85G | 0.252 |
| C63G G67C | 0.342 |
| G2C C14G | 0.0773 |

| Variant | self-cleavage |
| --- | --- |
| G29U C66G | 0.0652 |
| U23C C32G | 0.0415 |
| U9C C49G | 1.03 |
| C62U C85A | 0.847 |
| G80A G82A | 0.244 |
| G6C U12C | 0.123 |
| U79G C84G | 0.185 |
| C33G G39C | 0.0386 |
| C48U G54A | 0.813 |
| C64A G81C | 0.203 |
| U9C G80A | 0.277 |
| C7A A71C | 0.298 |
| C13G C22U | 0 |
| U20A A87C | 0.0631 |
| G1U A51U | 0.462 |
| A45U C63A | 0.784 |
| C22U U69C | 0.914 |
| U9G G59A | 1.16 |
| C13U C75G | 0.0723 |
| G10U U79C | 0.0615 |
| C41U U69G | 0.946 |
| C58U A83U | 0.453 |
| G10C U46G | 0.346 |
| G2A U47A | 0.0314 |

| Variant | self-cleavage |
| --- | --- |
| C18U G35A | 0.0906 |
| U20G U27A | 0.266 |
| A42G A51U | 0.464 |
| C15U A51C | 1.17 |
| G67A G73A | 0.492 |
| G53A U69G | 1.04 |
| U37G A78U | 0 |
| G38A C48U | 0.115 |
| U20A G25U | 0.119 |
| U46C G67U | 0.831 |
| C26A G59U | 1.12 |
| G5C U72G | 0.0831 |
| U27G C49G | 0.665 |
| A51C C58U | 0.95 |
| G31U G82U | 0.0378 |
| C44U | 0.803 |
| A51G G74A | 0.406 |
| C64A A83C | 0.332 |
| U27A C64U | 0.855 |
| G2U C19G | 0 |
| C4U C21U | 0.0678 |
| A16C A56U | 0.997 |
| U46A A70C | 0.831 |
| U12G C84A | 0.665 |

| Variant | self-cleavage |
| --- | --- |
| U37C G54A | 1.11 |
| A43U U72A | 0.194 |
| G2C A87G | 0.0671 |
| G50C G52U | 0.554 |
| U27A C63U | 0.813 |
| C49A G82C | 0.222 |
| U60C G67A | 0.776 |
| G10C C84U | 0.604 |
| G35U | 0.454 |
| C62U A71C | 0.812 |
| C32U U37A | 0.252 |
| G10C C33U | 0.696 |
| C3U C36U | 0.356 |
| C7A G35U | 0.0906 |
| C15U C22A | 0.113 |
| C7A G54U | 0.609 |
| A16C G54U | 0.789 |
| U12G C15U | 0.453 |
| C86A A87G | 0.804 |
| G1A C32A | 0.0386 |
| C26U G73U | 0.502 |
| C24A C36A | 0.175 |
| G25C A83G | 0.0302 |
| C14A U69G | 0.665 |

| Variant | self-cleavage |
| --- | --- |
| C62A C84G | 0.764 |
| G59U G73C | 0.614 |
| U23G G53C | 0.759 |
| C41U C85U | 0.845 |
| G81U C84G | 0.0923 |
| G1U C86G | 0.289 |
| C30A G82A | 0.0898 |
| C21A G35C | 0.177 |
| C66U C85A | 1 |
| C44U G55C | 0.882 |
| C21U G35C | 0.233 |
| U9G C22G | 0.208 |
| G34U A83G | 0.169 |
| G11A U37G | 0.142 |
| A8G C86A | 1.15 |
| G28C U72G | 0.138 |
| C36U C57A | 0.816 |
| U9A G29A | 0.0678 |
| C66G C85G | 0.969 |
| C22U C41G | 0.554 |
| U47G G67C | 0.554 |
| C62U G81U | 0.529 |
| A8G G73A | 0.369 |
